# Source: patent publication US20240132590A1 (Hoffmann-La Roche, published 2024)
# B1: CD3opt human IgG1 PGLALA (antibody, V domains shown)
# VH: EVQLLESGGGLVQPGGSLRLSCAASGFQFSSYAMNWVRQAPGKGLEWVSRIRSKYNNYATYYADSVKGRFTISRDDSKNTLYLQMNSLRAEDTAVYYCVRHTTFPSSYVSYYGYWGQGTLVTVSS
# VL: QAVVTQEPSLTVSPGGTVTLTCGSSTGAVTTSNYANWVQEKPGQAFRGLIGGTNKRAPGTPARFSGSLLGGKAALTLSGAQPEDEAEYYCALWYSNLWVFGGGTKLTVLR
# notes: Human IgG1 format with P329G L234A L235A (PGLALA) in the Fc; also called CD3opt IgG
# B2: CD3orig human IgG1 PGLALA (antibody, V domains shown)
# VH: not shown
# VL: B1 VL
# notes: Human IgG1 format, stated to carry P329G L234A L235A (PGLALA) in the Fc; also called CD3orig IgG
# Target: T1, human CD3 on cells (human, UniProt P07766 23-207)
# T1 construct: CD3 is a complex of several subunits on the cell; also called CD3 on Jurkat cells; CD3 on Jurkat NFAT reporter cells
# Assay: flow cytometry on Jurkat NFAT cells, PE-labelled anti-human Fc secondary antibody
# Method: Binding to CD3 on the human reporter T-cell line Jurkat NFAT was determined by FACS for the optimized CD3 binder “CD3ₒₚₜ” and the original CD3 binder “CD3orig”, both in human IgG₁ format with P329G L234A L235A (“PGLALA”, EU numbering) mutations in the Fc region (SEQ ID NOs 12 and 14 (CD3orig) and SEQ ID NOs 13 and 14 (CD3ₒₚₜ)).
# Jurkat-NFAT reporter cells (GloResponse Jurkat NFAT-RE-luc2P; Promega #C5176501) are a human acute lymphatic leukemia reporter cell line with a NFAT promoter, expressing human CD3. The cells were cultured in RPMI1640, 2g/1 glucose, 2 g/l NaHCO₃, 10% FCS, 25 mM HEPES, 2 mM L-glutamine, 1×NEAA, 1×sodium-pyruvate at 0.1-0.5 mio cells per ml. A final concentration of 200 μg per ml hygromycin B was added whenever cells were passaged.
# For the binding assay, Jurkat NFAT cells were harvested, washed with PBS and resuspended in FACS buffer. The antibody staining was performed in a 96-well round bottom plate. Therefore 100'000 to 200'000 cells were seeded per well. The plate was centrifuged for 4 min at 400×g and the supernatant was removed. The test antibodies were diluted in FACS buffer and 20 μl of the antibody solution were added to the cells for 30 min at 4° C. […] Before measurement the cells were resuspended in 200 μl FACS buffer and then analyzed by flow cytometry using a BD Canto II device.
# T1 sequence (P07766 23-207 limits assumed): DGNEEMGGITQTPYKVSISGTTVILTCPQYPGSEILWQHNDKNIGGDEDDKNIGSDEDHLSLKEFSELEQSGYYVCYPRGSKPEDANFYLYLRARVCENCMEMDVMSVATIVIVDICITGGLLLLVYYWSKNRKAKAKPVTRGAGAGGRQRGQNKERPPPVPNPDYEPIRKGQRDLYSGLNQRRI
row,Binder,EC50 (read off the curve)
1,B1,~400 pM
2,B2,~800 pM
